{"source": "paper PMC9714666", "about": "(Frontiers in Immunology, 2022)", "binders": {"B1": {"name": "D27LE (antibody, V domains shown)", "VH": "QVQLQQSGAEVKKPGSSVKVSCKASGGTFGNWSISWVRQAPGQGLEWMGGIDPSRGEATYAQKFQGRVTITTDESTSTAYMELSSLRSEDTAVYYCARETWYTSGGMDVWGQGTTVTVSS", "VL": "SYELTQPPSVSVAPGKTARITCGGNNIGRKSVHWYQQKPGQAPVLVVYDDSDRPSGIPERFSGSNSGNTATLTISRVEAGDEADYYCQVYDLWSSDYVFGTGTKVEIK"}}, "target": "6x(His)-tagged SARS-CoV-1 RBD (SARS-CoV-1, strain , UniProt P59594)", "assay": "BLI", "conditions": "both partners purified"}
{"binder": "B1", "values": [{"measurement": "Kd", "value": "< 0.01", "unit": "nM"}]}
